Measured values taken from paper PMC5291247, “The histone chaperone Vps75 forms multiple oligomeric assemblies capable of mediating exchange between histone H3–H4 tetramers and Asf1–H3–H4 complexes” (Nucleic Acids Research, 2016).

Target: the molecule itself
Assay: crystal structure; Vps75 (1-225) crystallised from the VAH preparation; sitting drop, 0.1 M sodium cacodylate pH 6.5, 25% PEG 4000; four monomers in the asymmetric unit, two tetrameric assemblies in the lattice

B1: Vps75 (1–225) (domain or fragment, UniProt P53853 1-225, looked up)
chain: MMSDQENENEHAKAFLGLAKCEEEVDAIEREVELYRLNKMKPVYEKRDAYIDEIAEFWKIVLSQHVSFANYIRASDFKYIDTIDKIKVEWLALESEMYDTRDFSITFHFHGIEGDFKEQQVTKVFQIKKGKDDQEDGILTSEPVPIEWPQSYDSINPDLIKDKRSPEGKKKYRQGMKTIFGWFRWTGLKPGKEFPHGDSLASLFSEEIYPFCVKYYAEAQRDLED
notes: Vps75, yeast, residues 1-225 (C-terminally truncated), as crystallised; Crystallised from the Vps75-Asf1-H3-H4 preparation; only Vps75 is in the crystal; also called Vps75 tetramer; Vps75 (1-225) dimer
stoichiometry N: 4
